According to patent EP4772193A1 (Teijin Pharma Limited, dated 2026):
Where two headings read alike, the source gives them in different places.

T1: recombinant human soluble gpNMB (recombinant human gpNMB-FLAG-His) (human, UniProt Q14956 23-498)
T1 sequence: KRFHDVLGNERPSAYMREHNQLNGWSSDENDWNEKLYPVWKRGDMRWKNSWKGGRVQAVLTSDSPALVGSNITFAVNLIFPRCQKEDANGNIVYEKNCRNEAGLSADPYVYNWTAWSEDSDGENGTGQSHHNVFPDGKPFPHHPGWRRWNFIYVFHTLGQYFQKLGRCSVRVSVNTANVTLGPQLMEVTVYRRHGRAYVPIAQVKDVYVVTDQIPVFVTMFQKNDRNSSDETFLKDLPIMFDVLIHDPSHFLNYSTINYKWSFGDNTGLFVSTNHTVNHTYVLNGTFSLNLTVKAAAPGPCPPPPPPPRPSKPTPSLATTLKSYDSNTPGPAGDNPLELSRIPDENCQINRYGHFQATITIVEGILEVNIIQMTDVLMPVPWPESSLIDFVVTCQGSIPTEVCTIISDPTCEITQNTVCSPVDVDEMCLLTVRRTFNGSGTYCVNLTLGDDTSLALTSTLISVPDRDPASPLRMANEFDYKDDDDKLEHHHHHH


Legend:
[1] = molecular target: T1, recombinant human soluble gpNMB …; experiment: antigen ELISA, vs hGPN06-1_H1L1
[2] = molecular target: T1, recombinant human soluble gpNMB …; experiment: antigen ELISA
[3] = molecular target: T1, recombinant human soluble gpNMB …; experiment: antigen ELISA; remark: listed apart in the source
[4] = molecular target: T1, recombinant human soluble gpNMB …; experiment: antigen ELISA, vs hGPN06-1_H1L1; remark: listed apart in the source

Relative binding activity [1] | EC50 [2] | EC50 [3] | Relative binding activity [4] | Binder
1.49 | 0.00198 µM | – | – | hGPN06-1_H1L1 VH T28A (antibody, V domains shown) VH: QVQLVQSGAEVKKPGASVKVSCKASGYAFTDNWMGWVKQRPGQGLEWIGAIDPSDSFTNYNQNFKGRVTMTVDTSISTAYMELSRLRSDDSAVYFCTRSGYYGSPKLGGDYWGQGTLVTVSS VL: EIVLTQSPSSLSASVGDRVTITCSASSSISYMHWYQQKSGTAPKLLIYSTSNLASGVPSRFSGSGSGTDFTFTISSLQPEDAATYYCHQWNSYPCTFGGGTKLEIK
– | – | 0.023 µM | 0.27 | hGPN06-1_H1L1 VL I29A (antibody, V domains shown) VH: QVQLVQSGAEVKKPGASVKVSCKASGYTFTDNWMGWVKQRPGQGLEWIGAIDPSDSFTNYNQNFKGRVTMTVDTSISTAYMELSRLRSDDSAVYFCTRSGYYGSPKLGGDYWGQGTLVTVSS VL: EIVLTQSPSSLSASVGDRVTITCSASSSASYMHWYQQKSGTAPKLLIYSTSNLASGVPSRFSGSGSGTDFTFTISSLQPEDAATYYCHQWNSYPCTFGGGTKLEIK
– | – | 0.00315 µM | 0.45 | hGPN06-1_H1L1 VL C95A (antibody, V domains shown) VH: QVQLVQSGAEVKKPGASVKVSCKASGYTFTDNWMGWVKQRPGQGLEWIGAIDPSDSFTNYNQNFKGRVTMTVDTSISTAYMELSRLRSDDSAVYFCTRSGYYGSPKLGGDYWGQGTLVTVSS VL: EIVLTQSPSSLSASVGDRVTITCSASSSISYMHWYQQKSGTAPKLLIYSTSNLASGVPSRFSGSGSGTDFTFTISSLQPEDAATYYCHQWNSYPATFGGGTKLEIK
– | – | 0.00184 µM | 0.58 | hGPN06-1_H1L1 VL N91A (antibody, V domains shown) VH: QVQLVQSGAEVKKPGASVKVSCKASGYTFTDNWMGWVKQRPGQGLEWIGAIDPSDSFTNYNQNFKGRVTMTVDTSISTAYMELSRLRSDDSAVYFCTRSGYYGSPKLGGDYWGQGTLVTVSS VL: EIVLTQSPSSLSASVGDRVTITCSASSSISYMHWYQQKSGTAPKLLIYSTSNLASGVPSRFSGSGSGTDFTFTISSLQPEDAATYYCHQWASYPCTFGGGTKLEIK
0.02 | 0.0699 µM | – | – | hGPN06-1_H1L1 VH Y27A (antibody, V domains shown) VH: QVQLVQSGAEVKKPGASVKVSCKASGATFTDNWMGWVKQRPGQGLEWIGAIDPSDSFTNYNQNFKGRVTMTVDTSISTAYMELSRLRSDDSAVYFCTRSGYYGSPKLGGDYWGQGTLVTVSS VL: EIVLTQSPSSLSASVGDRVTITCSASSSISYMHWYQQKSGTAPKLLIYSTSNLASGVPSRFSGSGSGTDFTFTISSLQPEDAATYYCHQWNSYPCTFGGGTKLEIK
– | – | 0.0429 µM | 0.28 | hGPN06-1_H1L1 VL H33A (antibody, V domains shown) VH: QVQLVQSGAEVKKPGASVKVSCKASGYTFTDNWMGWVKQRPGQGLEWIGAIDPSDSFTNYNQNFKGRVTMTVDTSISTAYMELSRLRSDDSAVYFCTRSGYYGSPKLGGDYWGQGTLVTVSS VL: EIVLTQSPSSLSASVGDRVTITCSASSSISYMAWYQQKSGTAPKLLIYSTSNLASGVPSRFSGSGSGTDFTFTISSLQPEDAATYYCHQWNSYPCTFGGGTKLEIK
– | – | 0.0275 µM | 0.06 | hGPN06-1_H1L1 VL Q89A (antibody, V domains shown) VH: QVQLVQSGAEVKKPGASVKVSCKASGYTFTDNWMGWVKQRPGQGLEWIGAIDPSDSFTNYNQNFKGRVTMTVDTSISTAYMELSRLRSDDSAVYFCTRSGYYGSPKLGGDYWGQGTLVTVSS VL: EIVLTQSPSSLSASVGDRVTITCSASSSISYMHWYQQKSGTAPKLLIYSTSNLASGVPSRFSGSGSGTDFTFTISSLQPEDAATYYCHAWNSYPCTFGGGTKLEIK
– | – | 0.000564 µM | 0.98 | hGPN06-1_H1L1 VL L53A (antibody, V domains shown) VH: QVQLVQSGAEVKKPGASVKVSCKASGYTFTDNWMGWVKQRPGQGLEWIGAIDPSDSFTNYNQNFKGRVTMTVDTSISTAYMELSRLRSDDSAVYFCTRSGYYGSPKLGGDYWGQGTLVTVSS VL: EIVLTQSPSSLSASVGDRVTITCSASSSISYMHWYQQKSGTAPKLLIYSTSNAASGVPSRFSGSGSGTDFTFTISSLQPEDAATYYCHQWNSYPCTFGGGTKLEIK
0.06 | 0.0281 µM | – | – | hGPN06-1_H1L1 VH W33A (antibody, V domains shown) VH: QVQLVQSGAEVKKPGASVKVSCKASGYTFTDNAMGWVKQRPGQGLEWIGAIDPSDSFTNYNQNFKGRVTMTVDTSISTAYMELSRLRSDDSAVYFCTRSGYYGSPKLGGDYWGQGTLVTVSS VL: EIVLTQSPSSLSASVGDRVTITCSASSSISYMHWYQQKSGTAPKLLIYSTSNLASGVPSRFSGSGSGTDFTFTISSLQPEDAATYYCHQWNSYPCTFGGGTKLEIK
0.04 | 0.028 µM | – | – | hGPN06-1_H1L1 VH T58A (antibody, V domains shown) VH: QVQLVQSGAEVKKPGASVKVSCKASGYTFTDNWMGWVKQRPGQGLEWIGAIDPSDSFANYNQNFKGRVTMTVDTSISTAYMELSRLRSDDSAVYFCTRSGYYGSPKLGGDYWGQGTLVTVSS VL: EIVLTQSPSSLSASVGDRVTITCSASSSISYMHWYQQKSGTAPKLLIYSTSNLASGVPSRFSGSGSGTDFTFTISSLQPEDAATYYCHQWNSYPCTFGGGTKLEIK
– | – | 0.00109 µM | 0.75 | hGPN06-1_H1L1 VL S26A (antibody, V domains shown) VH: QVQLVQSGAEVKKPGASVKVSCKASGYTFTDNWMGWVKQRPGQGLEWIGAIDPSDSFTNYNQNFKGRVTMTVDTSISTAYMELSRLRSDDSAVYFCTRSGYYGSPKLGGDYWGQGTLVTVSS VL: EIVLTQSPSSLSASVGDRVTITCSAASSISYMHWYQQKSGTAPKLLIYSTSNLASGVPSRFSGSGSGTDFTFTISSLQPEDAATYYCHQWNSYPCTFGGGTKLEIK
– | – | 0.00199 µM | 0.98 | hGPN06-1_H1L1 VL S24A (antibody, V domains shown) VH: QVQLVQSGAEVKKPGASVKVSCKASGYTFTDNWMGWVKQRPGQGLEWIGAIDPSDSFTNYNQNFKGRVTMTVDTSISTAYMELSRLRSDDSAVYFCTRSGYYGSPKLGGDYWGQGTLVTVSS VL: EIVLTQSPSSLSASVGDRVTITCAASSSISYMHWYQQKSGTAPKLLIYSTSNLASGVPSRFSGSGSGTDFTFTISSLQPEDAATYYCHQWNSYPCTFGGGTKLEIK
– | – | 0.00085 µM | 0.74 | hGPN06-1_H1L1 VL N52A (antibody, V domains shown) VH: QVQLVQSGAEVKKPGASVKVSCKASGYTFTDNWMGWVKQRPGQGLEWIGAIDPSDSFTNYNQNFKGRVTMTVDTSISTAYMELSRLRSDDSAVYFCTRSGYYGSPKLGGDYWGQGTLVTVSS VL: EIVLTQSPSSLSASVGDRVTITCSASSSISYMHWYQQKSGTAPKLLIYSTSALASGVPSRFSGSGSGTDFTFTISSLQPEDAATYYCHQWNSYPCTFGGGTKLEIK
– | – | 0.0064 µM | 0.65 | hGPN06-1_H1L1 VL M32A (antibody, V domains shown) VH: QVQLVQSGAEVKKPGASVKVSCKASGYTFTDNWMGWVKQRPGQGLEWIGAIDPSDSFTNYNQNFKGRVTMTVDTSISTAYMELSRLRSDDSAVYFCTRSGYYGSPKLGGDYWGQGTLVTVSS VL: EIVLTQSPSSLSASVGDRVTITCSASSSISYAHWYQQKSGTAPKLLIYSTSNLASGVPSRFSGSGSGTDFTFTISSLQPEDAATYYCHQWNSYPCTFGGGTKLEIK
– | – | 0.0264 µM | 0.05 | hGPN06-1_H1L1 VL P94A (antibody, V domains shown) VH: QVQLVQSGAEVKKPGASVKVSCKASGYTFTDNWMGWVKQRPGQGLEWIGAIDPSDSFTNYNQNFKGRVTMTVDTSISTAYMELSRLRSDDSAVYFCTRSGYYGSPKLGGDYWGQGTLVTVSS VL: EIVLTQSPSSLSASVGDRVTITCSASSSISYMHWYQQKSGTAPKLLIYSTSNLASGVPSRFSGSGSGTDFTFTISSLQPEDAATYYCHQWNSYACTFGGGTKLEIK
0.04 | 0.128 µM | – | – | hGPN06-1_H1L1 VH Y60A (antibody, V domains shown) VH: QVQLVQSGAEVKKPGASVKVSCKASGYTFTDNWMGWVKQRPGQGLEWIGAIDPSDSFTNANQNFKGRVTMTVDTSISTAYMELSRLRSDDSAVYFCTRSGYYGSPKLGGDYWGQGTLVTVSS VL: EIVLTQSPSSLSASVGDRVTITCSASSSISYMHWYQQKSGTAPKLLIYSTSNLASGVPSRFSGSGSGTDFTFTISSLQPEDAATYYCHQWNSYPCTFGGGTKLEIK
1.23 | 0.00202 µM | – | – | hGPN06-1_H1L1 VH T30A (antibody, V domains shown) VH: QVQLVQSGAEVKKPGASVKVSCKASGYTFADNWMGWVKQRPGQGLEWIGAIDPSDSFTNYNQNFKGRVTMTVDTSISTAYMELSRLRSDDSAVYFCTRSGYYGSPKLGGDYWGQGTLVTVSS VL: EIVLTQSPSSLSASVGDRVTITCSASSSISYMHWYQQKSGTAPKLLIYSTSNLASGVPSRFSGSGSGTDFTFTISSLQPEDAATYYCHQWNSYPCTFGGGTKLEIK
– | – | 0.147 µM | 0.08 | hGPN06-1_H1L1 VL H88A (antibody, V domains shown) VH: QVQLVQSGAEVKKPGASVKVSCKASGYTFTDNWMGWVKQRPGQGLEWIGAIDPSDSFTNYNQNFKGRVTMTVDTSISTAYMELSRLRSDDSAVYFCTRSGYYGSPKLGGDYWGQGTLVTVSS VL: EIVLTQSPSSLSASVGDRVTITCSASSSISYMHWYQQKSGTAPKLLIYSTSNLASGVPSRFSGSGSGTDFTFTISSLQPEDAATYYCAQWNSYPCTFGGGTKLEIK
